Assay results reported in paper PMC3626623, “Homo-dimerization and ligand binding by the leucine-rich repeat domain at RHG1/RFS2 underlying resistance to two soybean pathogens” (BMC Plant Biology, 2013).
No end group written: not given here.

B1: CLE peptide T (peptide)
peptide: AHEVPSGPNPISNR
modifications: not fully specified (N-terminus); also: labeled with FITC
B2: CLE peptide 36 (peptide)
peptide: SKRRVPNGPDPIHNR
modifications: not fully specified (N-terminus); also: labeled with FITC
B3: CLE peptide 36L (peptide)
peptide: RAELDFNYMSKRRVPNGPDPIHNRRAGNSGR
modifications: not fully specified (N-terminus); also: labeled with FITC
B4: CLE peptide 3 (peptide)
peptide: RTVPSGPDPLHH
modifications: not fully specified (N-terminus); also: labeled with FITC
B5: CLE peptide 3L (peptide)
peptide: KGLGLHEEELRTVPSGPDPLHHHVNPPRQPR
modifications: not fully specified (N-terminus); also: labeled with FITC
B6: CLE peptide N (peptide)
peptide: KRLSPSGPDPHHH
modifications: not fully specified (N-terminus); also: labeled with FITC
B7: LRR peptide L of GmRLK18-1 (peptide)
peptide: CTLSRLKTLDISNNALNGNLPATLSNLS
modifications: not fully specified (N-terminus); also: labeled with FITC
B8: CLE peptide 2 (peptide)
peptide: RLAPGGPDPQHN
modifications: not fully specified (N-terminus); also: labeled with FITC
B9: CLE peptide 2L (peptide)
peptide: DLPLAPADRLAGGPDPQHNVRAPPRKP
modifications: not fully specified (N-terminus); also: labeled with FITC
B10: CLE peptide 30 (peptide)
peptide: RLAPEGPDPHHN
modifications: not fully specified (N-terminus); also: labeled with FITC

How the values were obtained:
[1] = biological target: GmRLK18-1 LRR domain expressed in E. coli (soybean (Glycine max)); assay: native gel or EMSA; 12% (w/v) non-denatured PAGE of purified, refolded GmRLK18-1-LRR from E. coli; bands eluted and run again on SDS-PAGE
GmRLK18-1 LRR domain = assay: Far Western analysis of total root proteins probed with the LRR domain; type: binding, Glycine max; conditions: 2 D gels of total root proteins of SCN inoculated plants, identified by MS/MS; cyclophilin at 10 dai, methionine synthase at 28 dai
Text: For Far-Westerns the LRR domain was used as a probe to filters transferred from 1 or 2 D gels. As the secondary probe, anti-his antibody conjugated to HRP (1–10,000 dilution; Invitrogen, Carlsbad CA) was used. Spots and bands were picked manually and the proteins in them digested with trypsin and identified by direct infusion MS/MS following the methods in [31].

[2] = biological target: GmRLK08-1 LRR domain expressed in E. coli (soybean (Glycine max)); assay: fluorescence polarisation; FITC-labelled peptides in 20 mM phosphate buffer pH 6.9 in a cuvette, 5 nM aliquots, increase in polarisation; baseline of non-CLE and non-LRR peptides subtracted; Kd from double reciprocal Scatchard plots; 3 repeats with 3 protein preparations; apparent for peptide L
[3] = biological target: GmRLK18-1 LRR domain expressed in E. coli (soybean (Glycine max)); assay: as above

Row | Molecule | stoichiometry N [1] | binding to the LRR domain in Far Western (in words) (GmRLK18-1 LRR domain) | Kd [2] | Kd [3]
1 | GmRLK18-1 LRR domain expressed in E. coli (domain or fragment) | 2 | – | – | –
2 | cyclophilin: soybean root cyclophilin, 182 amino acids, matches gi 17981611, 19,392 d, pI 8.38 | – | avidly bound to the LRR | – | –
3 | B1 | – | – | 204 nM | 20 nM
4 | B2 | – | – | 52 nM | 14 nM
5 | B3 | – | – | 51 nM | 49 nM
6 | B4 | – | – | 50 nM | 29 nM
7 | B5 | – | – | 142 nM | 65 nM
8 | B6 | – | – | 78 nM | 30 nM
9 | B7 | – | – | 135 nM | 36 nM
10 | B8 | – | – | 96 nM | 45 nM
11 | B9 | – | – | 338 nM | 142 nM
12 | B10 | – | – | 84 nM | 44 nM
